Reference: paper PMC6105893

Molecular target: T1, LeuO (rLeuO) (Vibrio vulnificus MO6-24/O?) (UniProt A0A087INQ4)
T1 sequence: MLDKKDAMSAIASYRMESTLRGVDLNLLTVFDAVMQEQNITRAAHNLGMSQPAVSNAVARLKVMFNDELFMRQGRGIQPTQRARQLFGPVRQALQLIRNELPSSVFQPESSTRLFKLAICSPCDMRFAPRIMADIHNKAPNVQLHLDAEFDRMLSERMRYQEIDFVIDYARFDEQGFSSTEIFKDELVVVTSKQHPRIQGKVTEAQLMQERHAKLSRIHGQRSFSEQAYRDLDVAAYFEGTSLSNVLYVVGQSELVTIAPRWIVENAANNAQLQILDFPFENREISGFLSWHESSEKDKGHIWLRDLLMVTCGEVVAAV
Test: EMSA
Conditions: 10 mM Tris-HCl pH 7.4, 10 mM KCl, 1 mM EDTA, 0.1 mM DTT, 50 ug/ml BSA, 5% glycerol, 1 ug poly(dI-dC), 10 ng probe in 20 ul, 30 min at 37 C; 6% neutral …

GAGTTTGACGCTAAAAAATAGTGATGTGCAGCAAAAATAAGTAAAAGTTTACGCTGATAGGCTCGAAAAGGCTTGTCAGCGTTTTTTTTGGGAGCTAAGTTAGAGCTCGATGGCTGCCAGCCCTTTTAAGATAAGGCTTGGCGCTAATTTTTAGTATTAATGGAACGAAAGTCATCTAAAAAAATAATCACAGATGGCACAAAGGGGAATCACAGTGAACAAAACTCAACTAGTAGAATCAATCGCTGCAAACGCAGAT (double strand) [vhuB upstream region]
binding: binds
